Data as given in patent publication US11448657B2, “Methods and kits for assessing Heparanase procoagulant activity, compositions comprising Heparanase, and methods for the treatment of coagulation-related disorders” (RAMBAM MED-TECH, priority 2011, dated 2022).

How the values were obtained:
TF-factor VIIa complex = molecular target: T1, TF-factor VIIa complex (Homo sapiens, UniProt P13726); experiment: Activated factor X generation assay with purified TF, factor VIIa and factor X (chromogenic substrate); format: biochemical
T1 construct: purchased American Diagnostica (Stanford, Conn., USA)
T1 sequence (P13726 33-295): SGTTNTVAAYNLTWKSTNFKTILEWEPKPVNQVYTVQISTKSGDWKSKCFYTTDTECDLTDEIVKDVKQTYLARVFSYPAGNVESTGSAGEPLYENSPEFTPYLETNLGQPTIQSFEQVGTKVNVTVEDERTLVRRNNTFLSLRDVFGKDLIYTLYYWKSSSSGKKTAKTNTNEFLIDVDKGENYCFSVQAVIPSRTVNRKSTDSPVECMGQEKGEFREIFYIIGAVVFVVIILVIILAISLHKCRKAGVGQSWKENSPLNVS
T1 sequence (P08709 61-212 partner limits assumed): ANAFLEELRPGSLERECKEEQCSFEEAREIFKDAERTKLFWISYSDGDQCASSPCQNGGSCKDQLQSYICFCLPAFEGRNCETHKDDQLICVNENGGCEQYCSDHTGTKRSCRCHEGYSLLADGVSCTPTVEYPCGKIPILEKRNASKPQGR
T1 sequence (P08709 213-466 partner limits assumed): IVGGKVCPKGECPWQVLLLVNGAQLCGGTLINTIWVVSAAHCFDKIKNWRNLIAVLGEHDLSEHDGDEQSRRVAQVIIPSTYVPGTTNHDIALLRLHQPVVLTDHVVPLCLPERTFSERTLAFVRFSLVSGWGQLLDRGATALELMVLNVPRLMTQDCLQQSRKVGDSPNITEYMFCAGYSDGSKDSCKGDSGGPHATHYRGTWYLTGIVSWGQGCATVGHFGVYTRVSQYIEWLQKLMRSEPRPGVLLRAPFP
Method: FIG. 1A. Recombinant human TF, recombinant human factor VIIa, and plasma-derived human factor X were incubated (15 min, 37° C.) in a total assay volume of 125 μL. Chromogenic substrate for the detection of factor Xa was then added (final concentration 1 mM). Recombinant active heparanase GS3 (Hepa) was added prior to the addition of the coagulation factors. The mean value±SD of three independent experiments in shown. […]
FIG. 1C. […] The mean value of two experiments is shown. Note a 2-fold increase in coagulation activity when the medium contained heparanase or its derivatives.
Following preliminary experiments to quantify the appropriate protein doses, we performed a basic experiment of factor Xa generation in the following manner: the concentrations mentioned are the final concentrations. Lipidated recombinant human TF (0.004 μM, […]), recombinant human factor VIIa (0.04 μM) and plasma-derived human factor X (1.4 μM) were incubated in 50 μL assay buffer (0.06 M Tris, 0.04 M NaCl, 2 mM CaCl 2, 0.04% bovine serum albumin, pH 8.4) to a total volume of 125 μL in a 96-well sterile plate. After 15 min at 37° C., chromogenic substrate for factor Xa was added (1 mM). After 20 min, the reaction was stopped with 50 μL of glacial acetic acid and the level of factor Xa generation was determined using an enzyme-linked immunosorbent assay (ELISA) plate reader (Power Wave XS, BIO-TEK, VT, USA). In order to visualize the increased production of factor Xa by western blotting, the experiment was repeated with 7 μM factor X. After 15 min at 37° C., half of the reaction volume was subjected to blotting using monoclonal anti-human factor X/Xa heavy chain antibody.
The factor Xa generation assay was performed as described in the Design and Methods section with increasing doses of recombinant human heparanase (GS3) added prior to the addition of the coagulation factors. […] It should be noted that factor X is composed of two polypeptide chains, a heavy chain with a molecular weight of 38 kDa and a light chain with a molecular weight of 18 kDa joined by a dipeptide Arg-Arg. The factor VIIa-TF complex activates the conversion of factor X to factor Xa by cleaving the heavy chain to a 33 kDa peptide. […] In order to exclude contamination of the heparanase preparation during the routine procedure of purification described in the Design and Methods section, the inventors tested the effect of overnight serum-free without phenol medium of 293 HEK cells over-expressing heparanase and its derivatives compared to mock. The proteins were further purified from the culture medium and analyzed. Similar quantities of proteins were obtained from the culture media.

[1] = test system: TF-heparanase interaction; experiment: Co-immunoprecipitation of TF and heparanase; format: binding, human; conditions: purified TF and GS3 active heparanase 1 μg/mL each
Method: FIGS. 7A-7B: Direct interaction between heparanase and TF FIG. 7A. Co-immunoprecipitation. Purified TF (1 μg/mL) and GS3 active heparanase (1 μg/mL) proteins were incubated with beads coupled to polyclonal anti-TF (upper panel), or anti-heparanase (lower panel) antibodies. Bound proteins were analyzed by immunoblotting for the presence of heparanase (upper panel) or TF (lower panel), using the respective monoclonal antibody.
The interaction between TF and heparanase was analyzed by co-immunoprecipitation (Co-IP). The ProFound™ Co-Immunoprecipitation Kit in which the antibody is coupled to gel support, was employed according to the manufacturer's instruction (Pierce, Rockford, Ill., USA). Briefly, coupling gel was washed with coupling buffer. Polyclonal anti-TF or polyclonal anti-heparanase (1453) antibodies (100 μg) and 5 M sodium cyanoborohydride, were added to the gel support and incubated at 4° C. for 4 hours. The gel was then washed with quenching buffer and incubated with the quenching buffer and sodium cyanoborohydride at 20° C. for 30 minutes. Next, the gel was washed 4 times with wash solution, once with elution buffer, and twice with coupling buffer. Purified proteins (0.5 μg) were added to the gel and incubated for 2 hours at 4° C. […]

ICR mice [2] = experiment: Intra-peritoneal injection of heparanase to ICR mice, blood drawn after 4 hours (ELISA); format: in vivo; conditions: for IL-6 level: heparanase intra-peritoneal
Method: Heparanase or LPS were injected to ICR mice and blood was drawn after 4 hours. Intra-peritoneal injection of heparanase (0.5 μg/mg) compared to PBS injection increased TAT (p<0.05) (18A) and D-Dimer (p<0.05) (18B) levels to similar levels induced by LPS (5 μg/mg).
(§1) FIG. 19: IL-6 as a marker of sepsis severity Heparanase, LPS and LPS+heparanase were injected intra-peritoneal to ICR mice. Four hours later the blood was drawn and IL-6 level was measured by ELISA.
(§2) Methods: ICR mice, heparanase knock-out mice and heparanase over-expression mice were studied. Sepsis was induced by intra-peritoneal injection of lipopolysaccharides (LPS). Inhibitory peptides to TF/heparanase complex (number 11, 22, 5, 6, 7, 12, and 21 [SEQ IDs: 1-7]) were injected intra-peritoneal half an hour after heparanase or LPS. After 4 hours blood was obtained via sub-mandibular plexus puncture followed by mice sacrificing. Levels of thrombin-antithrombin (TAT), D-Dimer and IL-6 were tested using ELISA. Western blot to plasma factor VII and immunostaining of fibrinogen in lung, kidney and spleen were performed.

ICR mice [3] = experiment: LPS-induced sepsis in ICR mice; format: in vivo
Method: as §1
Heparanase, LPS and LPS+heparanase were injected intra-peritoneal to ICR mice. Four hours later the blood was drawn and thrombin-antithrombin (TAT) (20A) and D-dimer (20B) levels were evaluated by ELISA. Levels of TAT and D-dimer were reduced in the LPS+heparanase group compared to LPS alone in accordance with a severe activation of the coagulation system (p<0.05).
as §2

factor X = molecular target: T2, factor X (Homo sapiens, UniProt P00742); experiment: Direct activation of factor X by heparanase; format: biochemical; conditions: heparanase with factor X, 15 min 37° C.
T2 construct: plasma-derived human factor X; purchased American Diagnostica (Stanford, Conn., USA); host or cells: purified from human plasma
T2 sequence (P00742 183-488 limits assumed): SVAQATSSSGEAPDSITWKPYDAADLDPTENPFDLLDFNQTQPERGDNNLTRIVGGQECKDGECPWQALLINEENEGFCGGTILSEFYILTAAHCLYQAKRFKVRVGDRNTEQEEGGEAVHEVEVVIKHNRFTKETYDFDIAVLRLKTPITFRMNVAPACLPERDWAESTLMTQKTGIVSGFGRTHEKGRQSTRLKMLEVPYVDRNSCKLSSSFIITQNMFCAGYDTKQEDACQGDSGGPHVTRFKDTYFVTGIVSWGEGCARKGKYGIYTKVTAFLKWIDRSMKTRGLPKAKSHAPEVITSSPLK
T2 sequence (P00742 41-179 limits assumed): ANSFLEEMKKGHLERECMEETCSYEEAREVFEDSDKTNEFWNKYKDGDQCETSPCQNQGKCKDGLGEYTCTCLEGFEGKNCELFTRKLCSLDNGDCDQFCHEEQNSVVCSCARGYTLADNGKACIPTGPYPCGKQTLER

[4] = heparanase 0.5 μg/mg intra-peritoneal, 4 hours, compared to PBS
[5] = LPS+heparanase compared to LPS alone, 4 hours
[6] = heparanase half an hour following LPS

B1: heparanase: single chain GS3 active heparanase, comprised of the 8 kDa and 50 kDa heparanase heterodimer (8+50), recombinant human (protein, listed as Homo sapiens)
chain 1: DPAQDVVDLDFFTQEPLHLVSPSFLSVTIDANLATDPRFLILLGSPKLRTLARGLSPAYLRFGGTKTDFLIFDPKKE
chain 2: DPGKKFKNSTYSRSSVDVLYTFANCSGLDLIFGLNALLRTADLQWNSSNAQLLLDYCSSKGYNISWELGNEPNSFLKKADIFINGSQLGEDFIQLHKLLRKSTFKNAKLYGPDVGQPRRKTAKMLKSFLKAGGEVIDSVTWHHYYLNGRTATREDFLNPDVLDIFISSVQKVFQVVESTRPGKKVWLGETSSAYGGGAPLLSDTFAAGFMWLDKLGLSARMGIEVVMRQVFFGAGNYHLVDENFDPLPDYWLSLLFKKLVGTKVLMASVQGSKRRKLRVYLHCTNTDNPRYKEGDLTLYAINLHNVTKYLRLPYPFSNKQVDKYLLRPLGPHGLLSKSVQLNGLTLKMVDDQTLPPLMEKPLRPGSSLGLPAFSYSFFVIRNAKVAACI
modifications: single-chain GS3 linker
Q: How did the “increase in coagulation activity (factor Xa level)” value (TF-factor VIIa complex; TF, factor VIIa, factor X, 15 min 37° C., heparanase added prior to the coagulation factors) turn out when B1 was run?
A: 2 fold

Q: What about the “effect on Xa generation at reduced factor VIIa” value (TF-factor VIIa complex; absence of sufficient factor VIIa) of the same molecule?
A: effect of heparanase was abolished

Q: And the “increase in factor Xa levels” value (TF-factor VIIa complex; overnight serum-free medium of 293 HEK cells over-expressing heparanase species, compared to mock)?
A: 2 fold

Q: And the “Xa generation at reduced TF” value (TF-factor VIIa complex; very low levels of TF (3.13 μg))?
A: increased Xa generation by three folds

Q: What about the “factor Xa generation in incomplete reaction mixture” value (TF-factor VIIa complex; without TF, factor VIIa or factor X, or with inactivated VIIa) of the same molecule?
A: Factor Xa was not generated

Q: And the “interaction with TF” value [1]?
A: interacts with TF

Q: And the signs of illness (ICR mice [2]; heparanase 0.5 μg/mg intra-peritoneal)?
A: mice did not show signs of illness

Q: What about the D-dimer level (ICR mice [2]; [4]) of the same molecule?
A: increased

Q: What about the TAT level (ICR mice [2]; [4]) of the same molecule?
A: increased

Q: What about the IL-6 level (ICR mice [2]; 4 hours) of the same molecule?
A: levels of IL-6 did not rise

Q: What about the IL-6 level (ICR mice [2]; 4 hours, listed as Heparanase) of the same molecule?
A: did not increase IL-6 level

Q: And the D-dimer level (ICR mice [3]; [5])?
A: reduced levels

Q: And the IL-6 level (ICR mice [3]; [5])?
A: further augmented IL-6 level compared to LPS alone

Q: And the TAT level (ICR mice [3]; [5])?
A: reduced levels

Q: What about the “blood leak from puncture” value (ICR mice [3]; [6]) of the same molecule?
A: profuse blood leak from puncture

Q: What about the “factor VII by western blot” value (ICR mice [3]; [6]) of the same molecule?
A: reduced levels

Q: What about the fibrinogen by immunostaining (ICR mice [3]; [6]) of the same molecule?
A: reduced levels

Q: What about the “levels of IL-1” value (ICR mice [3]; [6]) of the same molecule?
A: maximal levels of IL-1

Q: What about the “factor Xa generation from factor X alone” value (factor X) of the same molecule?
A: no factor Xa was generated
